Experimental data published in US20240158494A1 (Biogen, published 2024).
Changes are numbered by the printed parent chain. Names may count otherwise.

B1: TfRANTIBODY-A HC-H3(HA) hIgG1Fab′(1C)/LC-L0 hKappa (Fab, V domains shown)
VH: QSLVESGGGLVQPGGSLRLSCKASGIDFSSSGYMHWVRQAPGKGLEWVGAIYTYSSNTYYASWAKGRFTISKDSKNSVYLQMNSLKTEDTAVYYCARGTYGYTGYTYTMGYFSLWGPGTLVTVSS
VL: DIQMTQSPSTLSASVGDRVTITCQASQNINSYLAWYQQKPGKAPKLLIYRASSLESGVPSRFSGSGSGTEFTLTISSLQPDDFATYYCQSYYYSGSSNYNAFGGGTKVEIKR
notes: also called ANTIBODY-A H3(HA)/L0; H3C(HA)/L0
B2: TfRANTIBODY-A HC-H3(SY) hIgG1Fab′(1C)/LC-L0 hKappa (Fab, V domains shown)
VH: B1 VH with H35S, A50Y
VL: B1 VL
notes: also called ANTIBODY-A H3(SY)/L0
B3: TfRANTIBODY-A HC-H3(SV) hIgG1Fab′(1C)/LC-L0 hKappa (Fab, V domains shown)
VH: B1 VH with H35S, A50V
VL: B1 VL
notes: also called ANTIBODY-A H3(SV)/L0
B4: TfRANTIBODY-A HC-H3(SR) hIgG1Fab′(1C)/LC-L0 hKappa (Fab, V domains shown)
VH: B1 VH with H35S, A50R
VL: B1 VL
notes: also called ANTIBODY-A H3(SR)/L0
B5: TfRANTIBODY-B HC-H1(HA) hIgG1Fab′(1C/LC-L2 hKappa (Fab, V domains shown)
VH: QSLVESGGGVVQPGRSLRLSCAASGFSFSNSYWIHWVRQAPGKGLEWVAAINTDADSTNYADSVKGRFTISKDNSKNTVYLQMNSLRAEDTAVYYCARQNNVFDPGYNLWGQGTLVTVSS
VL: ELVLTQSPSTLSASVGDRVTITCRASQNIGSNLAWYQQKPGKAPKLLIYDASKLESGVPSRFSGSGSGTEFTLTISSLQPDDFATYYCQCTVRGGAYGNAFGGGTKVEIKR
notes: also called ANTIBODY-B H1(HA)/L2
B6: TfRANTIBODY-B HC-H1(SV) hIgG1Fab′(1C)/LC-L2 hKappa (Fab, V domains shown)
VH: B5 VH with H35S, A50V
VL: B5 VL
notes: also called ANTIBODY-B H1(SV)/L2
B7: TfRANTIBODY-B HC-H1(SR) hIgG1Fab′(1C)/LC-L2 hKappa (Fab, V domains shown)
VH: B5 VH with H35S, A50R
VL: B5 VL
notes: also called ANTIBODY-B H1(SR)/L2
B8: TfRANTIBODY-B HC-H1(SY) hIgG1Fab′(1C)/LC-L2 hKappa (Fab, V domains shown)
VH: B5 VH with H35S, A50Y
VL: B5 VL
notes: also called ANTIBODY-B H1(SY)/L2
B9: Rabbit ANTIBODY-A chi Fab (Fab, V domains shown)
VH: QSLEESGGGLVQPGASLTLTCKASGIDFSSSGYMCWVRQAPGKGLEWIGCIYTYSSNTYYASWAKGRFTISKTSSTTVTLQMTSLTAADTATYFCARGTYGYTGYTYTMGYFSLWGPGTLVTVSS
VL: ELDMTQTPASVEAAVGGTVTIKCQASQNINSYLAWYQQKPGQPPKLLIYRASTLASGVPSRFKGSGSGTEFTLTISDLECADAATYYCQSYYYSGSSNYNAFGGGTELEIL
notes: chimeric Fab, rabbit variable regions; constant regions of the Fab not specified (chimeric antibodies were made with a human IgG1 framework); also called chimeric rabbit Fab fragment of RabANTIBODY-A
B10: TfR1 ANTIBODY-B HC-H1 hIgG1 Fab′(1C)/LC-L2 hKappa (Fab, V domains shown)
VH: B5 VH with H35A
VL: B5 VL
notes: also called ANTIBODY-B H1/L2
B11: TfR1 ANTIBODY-B HC-H2 hIgG1 Fab′(1C)/LC-L2 hKappa (Fab, V domains shown)
VH: QSLVESGGGVVQPGRSLRLSCKASGFSFSNSYWIAWVRQAPGKGLEWVAAINTDADSTNYADSVKGRFTISKDSSTTVYLQMNSLRAEDTAVYYCARQNNVFDPGYNLWGQGTLVTVSS
VL: B5 VL
notes: also called ANTIBODY-B H2/L2
B12: TfR1 ANTIBODY-B HC-H0C hIgG1 Fab′(1C)/LC-L2 hKappa (Fab, V domains shown)
VH: QVQLVESGGGVVQPGRSLRLSCAASGFSFSNSYWICWVRQAPGKGLEWVGCINTDADSTNYADSVKGRFTISRDNSKNTLYLQMNSLRAEDTAVYYCARQNNVFDPGYNLWGQGTLVTVSS
VL: B5 VL
notes: also called ANTIBODY-B H0C/L2
B13: TfR1 ANTIBODY-B HC-H3 hIgG1 Fab′(1C)/LC-L2 hKappa (Fab, V domains shown)
VH: B5 VH with H35A, D62S, S63W, V64A, K65R, V79L
VL: B5 VL
notes: also called ANTIBODY-B H3/L2
B14: Rabbit ANTIBODY-B chi Fab (Fab, V domains shown)
VH: QSLEESGGGLVQPEGSLTLTCKASGFSFSNSYWICWVRQAPGKGLEWIGCINTDADSTNYASWARGRFTISKTSSTTVTLQMTSLTAADTASYFCARQNNVFDPGYNLWGPGTLVTVSS
VL: ELVLTQTPASVSEAVGGTVTIKCQASQNIGSNLAWYQQKPGQPPKLLIYDASKLASGVPSRFSGSGSGTEFTLTISDLECADAATYYCQCTVRGGAYGNAFGGGTEVVVK
notes: chimeric Fab, rabbit variable regions; constant regions of the Fab not specified (chimeric antibodies were made with a human IgG1 framework); also called chimeric rabbit Fab fragment of RabANTIBODY-B
B15: TfR1 ANTIBODY-B HC-H0 hIgG1 Fab′(1C)/LC-L2 hKappa (Fab, V domains shown)
VH: B12 VH with C36A, G50A, C51A
VL: B5 VL
notes: also called ANTIBODY-B H0/L2
B16: TfRANTIBODY-B HC-H3C/LC-L2 (C90V) hIgG1Fab′(1C) (Fab, V domains shown)
VH: B5 VH with H35C, A49G, A50C, D62S, S63W, V64A, K65R, V79L
VL: B5 VL with C90V
notes: also called ANTIBODY-B H3C/L2(C90V)
B17: TfRANTIBODY-B HC-H3C/LC-L2 (C90T) hIgG1Fab′(1C) (Fab, V domains shown)
VH: B5 VH with H35C, A49G, A50C, D62S, S63W, V64A, K65R, V79L
VL: B5 VL with C90T
notes: also called ANTIBODY-B H3C/L2(C90T)

What follows are binders tested against T1, cynomolgus monkey transferrin receptor 1 (TfR1), full length, expressed on cells (cynomolgus monkey, UniProt Q5RDH6 1-760 (Pongo abelii entry)) (assay: FACS on Ba/F3 cells, Fab supernatant).
T1 construct: also called cyno TfR1; cyTfR
B1 gave an EC50 of roughly 30 nM. B2: no binding. B3: no binding. B4: no binding. Binder B5 has an EC50 of 7.1 nM. B6 gave an EC50 of 30 nM. B7: no binding. Binder B8 has an EC50 greater than 55 nM.

The binders below were run against T2, human transferrin receptor 1 (TfR1), full length, expressed on cells (human, UniProt P02786 1-760) (assay: FACS on Ba/F3 cells, Fab supernatant).
T2 construct: also called human TfR1; huTfR
B1 gave an EC50 of 16.8 nM. In the case of B2, the EC50 is reported as greater than 125 nM. In the case of B3, the EC50 is reported as greater than 150 nM. In the case of B4, the EC50 is reported as greater than 290 nM. B5 showed an EC50 of 18.2 nM. In the case of B6, the EC50 is reported as 98.6 nM. B7: no binding. Work on B8 yielded an EC50 of 113 nM.

What follows are binders tested against T3, recombinant human TfR1 extracellular domain, His-tagged (human, UniProt P02786 89-760) (assay: SPR, TfR1 ECD-His captured, Fab injected, 1:1 fit).
T3 construct: also called Human TfR1 ECD; human TfR1 ECD-His
Work on B9 yielded a Kd of 5.2 nM, a koff of 0.00101 s⁻¹ and a kon of 192000 M⁻¹ s⁻¹. Work on B10 yielded a Kd of 47.8 nM, a koff of 0.00453 s⁻¹ and a kon of 94700 M⁻¹ s⁻¹. B11 showed a Kd of 39.4 nM, a koff of 0.00328 s⁻¹ and a kon of 83200 M⁻¹ s⁻¹. B12 showed a Kd of 14.1 nM, a koff of 0.00343 s⁻¹ and a kon of 244000 M⁻¹ s⁻¹. B13 was tested, and the Kd was 65 nM, the koff was 0.00595 s⁻¹ and the kon was 91500 M⁻¹ s⁻¹. In the case of B14, the Kd is reported as 5.8 nM, the koff is reported as 0.000573 s⁻¹ and the kon is reported as 99200 M⁻¹ s⁻¹.

What follows are binders tested against T4, recombinant cynomolgus monkey TfR1 extracellular domain, His-tagged (cynomolgus monkey, UniProt Q5RDH6 87-760 (Pongo abelii entry)) (assay: SPR, TfR1 ECD-His captured, Fab injected, 1:1 fit).
T4 construct: also called Cyno TfR1 ECD; cyno TfR1 ECD-His
For B9, the Kd was 29 nM, the koff was 0.00925 s⁻¹ and the kon was 317000 M⁻¹ s⁻¹. Binder B10 has a Kd of 12 nM, a koff of 0.00105 s⁻¹ and a kon of 88300 M⁻¹ s⁻¹. For B11, the Kd was 8.7 nM, the koff was 0.00113 s⁻¹ and the kon was 129000 M⁻¹ s⁻¹. Work on B12 yielded a Kd of 6.5 nM, a koff of 0.00136 s⁻¹ and a kon of 210000 M⁻¹ s⁻¹. B13 showed a Kd of 12 nM, a koff of 0.00172 s⁻¹ and a kon of 143000 M⁻¹ s⁻¹. Work on B14 yielded a Kd of 1.5 nM, a koff of 0.000436 s⁻¹ and a kon of 283000 M⁻¹ s⁻¹.

These binders were tested against T3, recombinant human TfR1 extracellular … (assay: SPR, TfR1 ECD-His captured, in the presence of 1 mM holo human transferrin).
With B9 the Kd was 6.8 nM, the koff was 0.0012 s⁻¹ and the kon was 170000 M⁻¹ s⁻¹. B14 gave a Kd of 8.2 nM, a koff of 0.0015 s⁻¹ and a kon of 180000 M⁻¹ s⁻¹.

What follows are binders tested against T4, recombinant cynomolgus monkey TfR1 … in the same assay as above.
With B9 the Kd was 43 nM, the koff was 0.01 s⁻¹ and the kon was 230000 M⁻¹ s⁻¹. Work on B14 yielded a Kd of 3.5 nM, a koff of 0.00094 s⁻¹ and a kon of 270000 M⁻¹ s⁻¹.

What follows are binders tested against T3, recombinant human TfR1 extracellular … (assay: SPR, TfR1 ECD-His captured, Fab 50 and 500 nM, no transferrin).
For B9, the Kd was 7 nM, the koff was 0.0012 s⁻¹ and the kon was 170000 M⁻¹ s⁻¹. B14 was tested, and the Kd was 12 nM, the koff was 0.0018 s⁻¹ and the kon was 140000 M⁻¹ s⁻¹.

These binders were tested against T4, recombinant cynomolgus monkey TfR1 … in the same assay as above.
For B9, the Kd was 43 nM, the koff was 0.01 s⁻¹ and the kon was 230000 M⁻¹ s⁻¹. Binder B14 has a Kd of 3.8 nM, a koff of 0.00095 s⁻¹ and a kon of 250000 M⁻¹ s⁻¹.

Biological target: T1, cynomolgus monkey transferrin receptor …
Test: FACS on Ba/F3 cells, Fab supernatant
Remark: another data set of the same source
Work on B15 yielded an EC50 of 44.5 nM. Work on B10 yielded an EC50 of 4.9 nM. B11 gave an EC50 of 7.7 nM. B12 showed an EC50 of 5.5 nM. B13 gave an EC50 of 5.7 nM.

Biological target: T2, human transferrin receptor 1 (TfR1), …
Test: FACS on Ba/F3 cells, Fab supernatant
Remark: another data set of the same source
B15 gave an EC50 of 168 nM. B10 gave an EC50 of 9.6 nM. B11 gave an EC50 of 10.2 nM. B12 was tested, and the EC50 was 9.3 nM. In the case of B13, the EC50 is reported as 15.7 nM.

Biological target: T1, cynomolgus monkey transferrin receptor …
Test: FACS on Ba/F3 cells, Fab supernatant
Remark: another data set of the same source
For B16, the EC50 was 3.2 nM. B17 was tested, and the EC50 was 6.3 nM.

Biological target: T2, human transferrin receptor 1 (TfR1), …
Test: FACS on Ba/F3 cells, Fab supernatant
Remark: another data set of the same source
In the case of B16, the EC50 is reported as 7.7 nM. With B17 the EC50 was 15.9 nM.
